Results on one molecule are retold here after publication PMC3659266 (Structure (London, England : 1993), 2013).

This experiment deals with Human full-length eIF4AI (human, UniProt P60842 1-406). Kind of experiment: ITC.

By Kd is commonly meant the concentration at which binding is half-saturated.

Sequence of Human full-length eIF4AI (P60842 whole entry): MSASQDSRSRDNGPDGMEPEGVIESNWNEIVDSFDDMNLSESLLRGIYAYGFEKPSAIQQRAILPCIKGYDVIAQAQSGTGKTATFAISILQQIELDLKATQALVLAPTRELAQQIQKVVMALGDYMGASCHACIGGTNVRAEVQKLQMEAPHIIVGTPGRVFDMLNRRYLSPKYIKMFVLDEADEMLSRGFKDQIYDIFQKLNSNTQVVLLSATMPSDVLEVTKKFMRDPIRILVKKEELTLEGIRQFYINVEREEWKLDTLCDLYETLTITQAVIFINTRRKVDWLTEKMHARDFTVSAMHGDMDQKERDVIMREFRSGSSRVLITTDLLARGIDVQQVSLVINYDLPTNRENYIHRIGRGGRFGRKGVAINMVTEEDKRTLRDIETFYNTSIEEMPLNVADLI

B1: Middle domain of human eIF4GI (MIF4G, residues 732-1003) (domain or fragment, UniProt Q04637 732-1003, looked up)
chain: KAWKPSSKRTAADKDRGEEDADGSKTQDLFRRVRSILNKLTPQMFQQLMKQVTQLAIDTEERLKGVIDLIFEKAISEPNFSVAYANMCRCLMALKVPTTEKPTVTVNFRKLLLNRCQKEFEKDKDDDEVFEKKQKEMDEAATAEERGRLKEELEEARDIARRRSLGNIKFIGELFKLKMLTEAIMHDCVVKLLKNHDEESLECLCRLLTTIGKDLDFEKAKPRMDQYFNQMEKIIKEKKTSSRIRFMLQDVLDLRGSNWVPRRGDQGPKTID
Take B1: the Kd stood at 136 nM.
